Tests used:
IL-2Rβγ complex [1] = target: T1, IL-2Rβγ complex (UniProt P14784 27-551; P31785 23-369); assay: cell-based or functional assay
IL-2Rβγ complex [2] = target: T1, IL-2Rβγ complex; assay: SPR; Biacore, IL-2 receptor proteins immobilised on a CM5 chip; wild-type IL-2 or variant 012 flowed over at stepwise concentrations for 120 s, then blank solution; 1:1 binding fit (steady state affinity for 001 on IL-2Rα); conditions: both partners purified
IL-2Rαβγ complex = IL-2Rαβγ complex (UniProt P01589 22-272; P14784 27-551; P31785 23-369); assay: as above; conditions: both partners purified
IL-2Rαβγ complex, sequence (P01589 22-272, chain 1 of 3): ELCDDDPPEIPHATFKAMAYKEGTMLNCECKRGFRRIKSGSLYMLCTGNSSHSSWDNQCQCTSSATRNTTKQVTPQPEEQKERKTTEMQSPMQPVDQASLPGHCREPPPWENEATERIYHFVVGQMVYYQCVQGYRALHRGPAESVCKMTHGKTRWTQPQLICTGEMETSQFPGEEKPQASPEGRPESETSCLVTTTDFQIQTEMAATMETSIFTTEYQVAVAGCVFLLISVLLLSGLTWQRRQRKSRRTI
IL-2Rαβγ complex, sequence (P14784 27-551, chain 2 of 3): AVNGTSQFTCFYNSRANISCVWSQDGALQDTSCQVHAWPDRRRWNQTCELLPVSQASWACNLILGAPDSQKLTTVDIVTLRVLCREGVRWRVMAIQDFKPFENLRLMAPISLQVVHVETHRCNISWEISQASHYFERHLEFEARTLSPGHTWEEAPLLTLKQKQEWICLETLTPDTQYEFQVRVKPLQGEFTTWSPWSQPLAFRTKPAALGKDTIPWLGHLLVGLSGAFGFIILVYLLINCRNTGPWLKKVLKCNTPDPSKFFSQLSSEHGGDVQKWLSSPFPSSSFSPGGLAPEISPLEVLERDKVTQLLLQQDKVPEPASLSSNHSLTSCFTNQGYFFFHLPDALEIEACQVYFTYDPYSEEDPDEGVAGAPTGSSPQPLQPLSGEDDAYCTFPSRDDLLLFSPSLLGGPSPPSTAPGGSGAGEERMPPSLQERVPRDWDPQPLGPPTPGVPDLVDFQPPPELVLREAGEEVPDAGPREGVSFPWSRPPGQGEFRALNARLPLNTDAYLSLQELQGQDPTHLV
IL-2Rαβγ complex, sequence (P31785 23-369, chain 3 of 3): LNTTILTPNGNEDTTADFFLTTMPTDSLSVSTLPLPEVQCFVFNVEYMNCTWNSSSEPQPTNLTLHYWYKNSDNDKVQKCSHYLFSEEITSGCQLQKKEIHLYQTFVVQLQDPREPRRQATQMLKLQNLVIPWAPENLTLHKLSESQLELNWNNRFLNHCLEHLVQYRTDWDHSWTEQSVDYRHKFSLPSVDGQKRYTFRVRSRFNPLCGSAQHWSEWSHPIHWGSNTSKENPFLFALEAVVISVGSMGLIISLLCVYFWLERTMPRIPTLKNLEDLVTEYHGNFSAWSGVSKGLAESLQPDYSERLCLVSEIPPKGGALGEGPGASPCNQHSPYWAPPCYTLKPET

T1 sequence (P14784 27-551, chain 1 of 2): as the sequence (P14784 27-551, chain 2 of 3) above
T1 sequence (P31785 23-369, chain 2 of 2): as the sequence (P31785 23-369, chain 3 of 3) above

- EC50 of STAT5 activation (pSTAT5) in CD8 T cells of human PBMC (Table S4) (IL-2Rβγ complex [1]): 18.6 nM
- EC50 of STAT5 activation (pSTAT5) in NK cells of human PBMC (Table S4) (IL-2Rβγ complex [1]): 5.11 nM
- Kd (IL-2Rβγ complex [2]): 0.467 nM
- koff (IL-2Rβγ complex [2]): 0.00106 s⁻¹
- Kd (IL-2Rαβγ complex): 0.575 nM
- koff (IL-2Rαβγ complex): 0.000732 s⁻¹
B1: IL-2 variant 012 (ligand)
chain: PTSSSTKKTQLQLEHLLLDLQMILNGINNYKNPLRPRDLISNINVIVLELKGSETTELKHLQSLEEELKDLEEVLNLAQSKNFHTIVEFLNRWITFSQSIISTLT
notes: also called βγ-only IL-2v
